From publication doi:10.1101/544239 (bioRxiv, 2019)

T1: Helicobacter pylori histidine kinase CheA, strain G27 (Helicobacter pylori (G27 strain), UniProt B5Z859 1-807)
T1 sequence (looked up): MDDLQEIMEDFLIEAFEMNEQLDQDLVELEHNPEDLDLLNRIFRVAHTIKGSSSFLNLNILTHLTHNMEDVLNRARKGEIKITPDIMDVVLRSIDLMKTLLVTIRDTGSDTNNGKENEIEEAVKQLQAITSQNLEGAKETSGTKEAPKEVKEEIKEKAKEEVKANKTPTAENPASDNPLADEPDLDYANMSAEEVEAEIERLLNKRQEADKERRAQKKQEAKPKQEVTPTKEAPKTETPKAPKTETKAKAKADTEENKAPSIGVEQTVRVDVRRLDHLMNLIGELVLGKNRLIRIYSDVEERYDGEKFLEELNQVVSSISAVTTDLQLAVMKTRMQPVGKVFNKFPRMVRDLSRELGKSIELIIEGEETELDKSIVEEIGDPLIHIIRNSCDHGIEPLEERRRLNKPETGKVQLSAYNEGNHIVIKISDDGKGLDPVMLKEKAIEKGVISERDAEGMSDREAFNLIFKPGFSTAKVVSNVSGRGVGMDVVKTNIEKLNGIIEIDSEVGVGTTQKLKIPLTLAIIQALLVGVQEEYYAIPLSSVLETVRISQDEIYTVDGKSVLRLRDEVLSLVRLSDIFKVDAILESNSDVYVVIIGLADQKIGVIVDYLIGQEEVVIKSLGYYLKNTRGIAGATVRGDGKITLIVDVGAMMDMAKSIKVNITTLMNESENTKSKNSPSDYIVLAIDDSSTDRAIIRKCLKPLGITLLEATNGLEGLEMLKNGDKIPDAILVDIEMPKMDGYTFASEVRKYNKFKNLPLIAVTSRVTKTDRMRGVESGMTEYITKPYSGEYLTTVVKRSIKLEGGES

T2: CheW-CheA complex of Helicobacter pylori (Helicobacter pylori (G27 strain) | …, UniProt B5Z859 1-807; O25152 1-165)
T2 sequence (looked up) 1: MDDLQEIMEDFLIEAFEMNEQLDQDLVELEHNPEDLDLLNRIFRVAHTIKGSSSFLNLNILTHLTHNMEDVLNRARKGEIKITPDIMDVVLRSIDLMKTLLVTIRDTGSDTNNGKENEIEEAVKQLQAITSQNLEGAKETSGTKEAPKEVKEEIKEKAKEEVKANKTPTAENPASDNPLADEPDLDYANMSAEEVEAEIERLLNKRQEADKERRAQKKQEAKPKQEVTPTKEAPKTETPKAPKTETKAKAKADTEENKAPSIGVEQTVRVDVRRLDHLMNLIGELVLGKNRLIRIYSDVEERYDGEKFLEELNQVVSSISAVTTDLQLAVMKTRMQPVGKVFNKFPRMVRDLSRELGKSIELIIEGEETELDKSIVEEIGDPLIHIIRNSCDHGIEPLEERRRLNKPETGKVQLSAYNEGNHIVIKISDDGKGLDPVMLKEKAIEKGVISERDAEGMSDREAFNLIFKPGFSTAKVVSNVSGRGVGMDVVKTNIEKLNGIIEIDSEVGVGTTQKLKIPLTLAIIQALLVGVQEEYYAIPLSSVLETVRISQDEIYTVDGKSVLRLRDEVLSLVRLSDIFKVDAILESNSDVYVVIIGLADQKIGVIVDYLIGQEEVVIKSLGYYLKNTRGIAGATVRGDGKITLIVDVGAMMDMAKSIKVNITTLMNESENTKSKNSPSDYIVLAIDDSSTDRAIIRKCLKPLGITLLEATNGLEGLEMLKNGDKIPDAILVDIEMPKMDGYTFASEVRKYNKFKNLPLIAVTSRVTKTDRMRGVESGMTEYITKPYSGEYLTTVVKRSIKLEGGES
T2 sequence (looked up) 2: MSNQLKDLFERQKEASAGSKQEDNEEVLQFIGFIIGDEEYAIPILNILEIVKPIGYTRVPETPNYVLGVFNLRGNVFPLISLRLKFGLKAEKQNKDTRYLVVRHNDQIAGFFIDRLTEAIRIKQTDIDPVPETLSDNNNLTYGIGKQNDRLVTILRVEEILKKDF

B1: Helicobacter pylori scaffold protein CheW, strain SS1 (natural protein, Helicobacter pylori (SS1 strain), UniProt O25152 1-165, looked up)
chain: MSNQLKDLFERQKEASAGSKQEDNEEVLQFIGFIIGDEEYAIPILNILEIVKPIGYTRVPETPNYVLGVFNLRGNVFPLISLRLKFGLKAEKQNKDTRYLVVRHNDQIAGFFIDRLTEAIRIKQTDIDPVPETLSDNNNLTYGIGKQNDRLVTILRVEEILKKDF
B2: Helicobacter pylori transducer-like protein D (TlpD), strain SS1 (receptor)
chain: not shown

Key:
[1] = biological target: T1, Helicobacter pylori histidine kinase …; assay: kinase activity titration
[2] = biological target: T2, CheW-CheA complex of Helicobacter pylori; assay: kinase activity titration
AUC = biological target: the molecule itself; assay: AUC

Row | Binder | Kd [1] | Kd [2] | Kd (AUC) | stoichiometry N (AUC)
1 | B1 | 14.6 µM |  |  | 
2 | B2 |  | 15.2 µM | 0.15 µM | 2
